{"source": "ChEMBL document CHEMBL1122882", "about": "“3,4-O-diacetylisoproterenol. Preparation, structure proof, and beta-receptor effect” (1985)", "key": {"[1]": {"test_system": "CC(=O)Oc1ccc(C(O)CNC(C)C)cc1OC(C)=O", "settings": "Cerebral cortex", "description": "(§1) Evaluated for the affinity in stimulating cAMP synthesis by beta-1 adrenergic receptor in rat cerebral cortex."}, "[2]": {"test_system": "CC(=O)Oc1ccc(C(Cl)CNC(C)C)cc1OC(C)=O", "settings": "Cerebral cortex", "description": "as §1"}}, "data": [{"substance": "Beta-1 adrenergic receptor (Rattus norvegicus), P18090", "values": [{"measurement": "Km", "setting": "[1]", "value": 25, "unit": "µM"}, {"measurement": "Km", "setting": "[2]", "value": 28, "unit": "µM"}]}]}
